Results on 2 compounds are retold here after EP3284477A1, “COMPOSITION COMPRISING SELF-ASSEMBLING PEPTIDES FOR USE IN TREATMENT OF GINGIVITIS, PERIODONTITIS AND/OR PERI-IMPLANTITIS” (Credentis AG, priority 2016, dated 2018).

One data set concerns P. gingivalis. The data set is described as follows: Release of antibiotics from self-assembling peptide gels: impact on bacterial growth (turbidity OD600). The format is cell-based. The conditions noted are these: antibiotic 150 mg/ml released from self-assembling peptide gels (15 mg/ml), anaerobic, OD600 normalized to gel without antibiotic, over 120 hours. The procedure:
(§1) The following figures and examples are supposed to illustrate and further explain, but not to limit the invention. Any references cited herein are herewith fully incorporated. • Fig. 1: Bacterial density after release of antibiotics (150 mg/ml) from self-assembling peptide gels (15 mg/ml), and the impact thereof to the growth of P. gingivalis (A-C) and S. sanguinis (D-F). Circles: metronidazol, stars: tetracycline, triangle: ciprofloxacin, squares: doxycycline hyclate; control: gel without API A/D P11-4 gel. B/E P11-13/14 gel. C/F P11-28/29 gel • Fig. 2: Cross section of demineralized tooth after incubation with polymeric P11-4. […] 100µl peptide / well, c= 20 mg/ml, in PBS, quantified with Qubit R Protein Assay Ref: Q33211. […] 100 µl peptide / well, c= 20 mg/ml, in PBS, quantified with Qubit R Protein Assay Ref: Q33211. […] Since NO3- are monovalent ions, and ionic strength of the solution was below 130 mM, P11-8 self-assembling was slowed down. […] The cell/SAP-gel/ dentin was then incubated for 8 days and visually assessed resulting in migration of up to 5 mm. […]
(§2) Furthermore 100 uL/well of a defined anaerobic P. gingivalis or aerobic S. anguines bacterial culture ([…] e.g. 990 µl BHI medium, 10 µl 10^8 CFU/ml bacteria suspension) were added onto the gels. Impact on growth was assessed by measuring turbidity at OD600 nm. […]

A further data set concerns S. sanguinis. Described as above. The data set is classed as cell-based. To be noted: antibiotic 150 mg/ml released from self-assembling peptide gels (15 mg/ml), aerobic, OD600 normalized to gel without antibiotic, over 120 hours. The procedure: as §1, §2
Data set [1] is described as follows: Stability of P11 peptide gels in absence of cells or bacteria (peptide release into supernatant, Qubit Protein Assay). The format is physicochemical. Also on record: unit not given here. To be noted: 7 days, 100µl peptide / well, c= 20 mg/ml, in PBS. The procedure: (§3) The following figures and examples are supposed to illustrate and further explain, but not to limit the invention. Any references cited herein are herewith fully incorporated. • Fig. 1: Bacterial density after release of antibiotics (150 mg/ml) from self-assembling peptide gels (15 mg/ml), and the impact thereof to the growth of P. gingivalis (A-C) and S. sanguinis (D-F). Circles: metronidazol, stars: tetracycline, triangle: ciprofloxacin, squares: doxycycline hyclate; control: gel without API A/D P11-4 gel. B/E P11-13/14 gel. C/F P11-28/29 gel • Fig. 2: Cross section of demineralized tooth after incubation with polymeric P11-4. […] 100µl peptide / well, c= 20 mg/ml, in PBS, quantified with Qubit R Protein Assay Ref: Q33211. […] 100 µl peptide / well, c= 20 mg/ml, in PBS, quantified with Qubit R Protein Assay Ref: Q33211. […] Since NO3- are monovalent ions, and ionic strength of the solution was below 130 mM, P11-8 self-assembling was slowed down. On the other hand self-assembling kinetic of P11-8 with DMEM and NaCl solution is very similar. […] Human Periodontal Ligament cells were placed in a cell pool (A) and the SAP gel (C) placed on the human dentin (B). The cell/SAP-gel/ dentin was then incubated for 8 days and visually assessed resulting in migration of up to 5 mm. Scale bar: 1 mm

Data set [2] is described as follows: Mechanical properties (storage modulus G') of gels in different ion and buffer systems. The data set is classed as physicochemical. The conditions noted are these: compared with Tris-NaCl. The procedure:
as §3

Another data set relates to bacteria. The data set is described as follows: Degradation of P11-4 peptide gel in presence of bacteria (Qubit Protein Assay). To be noted: 100 µl peptide / well, c= 20 mg/ml, in PBS. The data set is classed as physicochemical. The procedure: as §3
In data set [3] the test system is Human Periodontal Ligament cells. Nature of the data set: Cell migration on a periodontal ligament model (cell pool / SAP gel / human dentin). To be noted: 15 mg/ml gel on human dentin, 8 days of incubation, visually assessed. The format is cell-based. The procedure: as §3

With `Cc1ncc([N+](=O)[O-])n1CCO` [metronidazole], the “inhibition of bacterial growth (relative bacterial density)” value with P. gingivalis and with S. sanguinis was “low effectivity in most systems at this concentration” in each case.
On to “QQRFEWEFEQQ [P11-4, self-assembling peptide]”, for which the “release of peptide into the supernatant” value in data set [1] was “less than one”. Further, the “storage modulus G'” value in data set [2] (gel formed in DMEM (pH 7.4, ionic strength 130 mM)) is “lower storage modulus”; in data set [2] (gel formed in artificial saliva (Tris 120 mM, Ca(NO3) 4 mM, KH2PO4 2.4 mM, pH 7.2), DMEM, Tris MgSO4) it was “storage moduli between G'(NaCl and MgSO^4) was reached”. The “stability (time the peptide is stable)” value in the data set on bacteria was “more than 3 days”. Further, in data set [3], the migration result was “up to 5 mm”.
